Reference: the DeepSol protein solubility set

Experiment: soluble on expression in E. coli; label from the status in PepcDB or PDB records

Sequence	soluble on expression in E. coli
MDIRQMNRTHLDHWRGLRKQLWPGHPDDAHLADGEEILQADHLASFIAMADGVAIGFADASIRHDYVNGCDSSPVVFLEGIFVLPSFRQRGVAKQLIAAVQRWGTNKGCREMASDTSPENTISQKVHQALGFEETERVIFYRKRC	not soluble
MNSNANNTPIAIGISQVFPCSYLDGQQEQLLVIQEETLDPILFERLLAIGFRRSGSAIYKPRCPRCSACQPIRVPIQEFVPSKRQKRTLAHNRDLTWRITTEHTETQYALYEKYIRERHFDGPMYPPSKAQYEQFLFCHWLPPTFIEVYDDNRLVAVAVTDTLPNSFSAIYSYFDPDEERRSLGVLLILLQCRLAKLQGKAFLYLGYQIDANRKMSYKRLYRPYQILTHQGWEYSQVCLEHHHHHH	not soluble
MSLSEKTFPSHARVVIVGGGVMGVGLAYHLAHEGWGHDTVLLEKAELTSGSTWHAAGQITHSTSSYGLGKCVDYNIGLYSGGLEAETGQAVTWHGCGSFRLAYTEDEMDWLRHTLSVGRSLGFNIDLVSPQRVAELHPFYNLDGVLGALHTPDDGHVDPTNVTMALAAGARAKGVRIIRRCRASNITQLASGEWQVETDQGTITCEHVVNAGGTYARQMGEWSGLQLPMTSMTHHYFVTENVPEFEALDRELPVIRDDKKVSGYIRMEQKRGLIGIYEKANPNAVWLDECPWDYENWLFDADYDRVMPWLEESLNRMPVLAERGITREVHGAISHPPDGNPLIGPAPGVRNYWCCCGTQIGIGWGPGLTRELARWMVHGAADISMRDYDPRRFGSYATKEWQVIKAKEDYCLRHEIPFPHFNRLAGRPVKPSPLYDRLKSKGAVFEEVYGHERPRWFAKAGIAQHDHYGFGRTPVHDVVGDECRAVREAAGIMDISAFTKVELSGPEAETLLDRLVANRLPRKTGGIALTHMLNAAGRIELETTVVRLASDRFYLVCAAFFEQRLLDHLDRHRGTADVTVTLRSNDWAALTLNGPRSRDILATCTDAPLDNAAFPWLTAQEITVAGHRLWAFRMSYAGELGWEFHMPRDAALAVYDALWAAGAPLGLADYGSFAMNAMRMEKGFKGAGELTNEVTLAEADVLRFARTDKAYIGREATLAPARRFVCAYLEIAPDGAHDGHGGEAVLLQGKVVGSTASVAYGHSCGKILAFAYVRPEANVAGTEVEVVIAGTPRPARILGAPAYDPEGLLPRTDAKGIITITTDPNSSSVDKLAAALEHHHHHH	soluble
MQNGAMKAWLDSSYLAGANQSYIEQLYEDFLTDPGSVDDSWRSIFQQLPTTGVKPDQLHSQTREYFRRLAKDSTRYNSSINDPDIDAKQVKVLQLINAFRFRGHQHANLDPLGLWKQESVPDLDPSYHNLTEADFQNTFNVGSFAIGKETMKLADLYAALKQTYCGSVGAEYMHITNTEEKRWIQQRIESVVGKPTFSDAEKRRFLSELTAAEGLERYLGAKFPGAKRFSLEGGDSLVTMLKEMIRHAGKNGTREVVLGMAHRGRLNVLINVLGKKPEDLFDEFAGKHKEHLGTGDVKYHQGFSSDVETEGGLVHLALAFNPSHLEIVSPVVIGSVRARRDRLDEARSNMVLPITIHGDAAITGQGVVQETLNMSQARGYEVGGTVRIVINNQIGFTTSNPLDARSTQYCTDIAKMVQAPIFHVNADDPEAVAFVTRLALDFRNTFKRDVMIDLVCYRRHGHNEADEPSATQPVMYQKIKKHPTPRKIYADKLIEQNIASLEDATEMVNLYRDALDHGDCVVEEWRPMNLQSFTWSPYLNHEWDEAYPSKVEMKRLQELARRISSAPEAIEMQSRVAKIYSDRALMASGEKPFDWGGAETLAYATLVDEGIPIRLSGEDAGRGTFFHRHAVIHNQKNGSVYVPLSNIHSGQGDFQVWDSVLSEEAVLAFEYGYATAEPRTLTIWEAQFGDFANGAQVVIDQFISSGEQKWGRMCGLVMLLPHGYEGQGPEHSSARLERYLQLCAEQNMQVCIPSTPAQVYHMIRRQALRGMRRPLIVMSPKSLLRHPLATSSLDELANGSFLPAIGEIDELDPKGIKRVVMCSGKVYYDLLEQRRKNGQTDVAIVRIEQLYPFPHQAVQSVLEQYAHVHDFVWCQEEPLNQGAWYCSQHNFREVIPFGASLRYAGRPASASPAVGYLSVHQKQQQALVNDALNVE	not soluble
MEAEELTVGRVHHGHNIRRFRIEKNMNQEVLSQLVHLSQSAVSKYEQMRVIDDEMLHRFSRALGVPFEYLKSLEEDAQTVVFENNTVNNNDQASANIGGYVEENNRVNNYNPIEKITELYERLLKEKDEKYAALERRLQNIEQSLQK	not soluble
MTIYFLFGKTGSGKSYIGELLRQLSIVHIDGDNHITQKMRDCLIEDEQMTPEMIDEFVDVLIDVIKTQKTKTPNESFVISQAMYLDKHRLKLLNAIPELEFVMIDVIPVLRASRITNRFRNQESKVSLRYATRMDAFFEYPSHETIRLENNQSSDETLIEQIREKMPALFNMESKEELNSGIQLQFALEHHHHHH	soluble
MGSDKIHHHHHHMRIFDAHCDALLKLWEDPAREYTDDPAIEANAVRLMEGGVRAQCFAIFVGPNIPFDQKFQVALQQAELFHEKILKKHPQFSFIERWDDLLTLDADQIGAILTLEGADPFGDDPTKLKTLYRLGVRSLGLTWNQANLCADGVGEPRGGGLTEWGKAVVSLNNEHHVLTDVSHLSERGFWDVIEYAQFPVATHSNAKAICKHRRNLTDAQLKALIEAGGFIGIVFHPHFLTGTDDASIDDVMKHIEHICSLGGQKHVGFGSDFDGIPCFVDGLEHAGRFQWFMDELLKRYDEELVRGFAWDNFLKATPISYV	not soluble
MYETQVQELSPEEAKRLYDQGVPFFDVREVEEYAQARIPGARLLPLSEFMARYGEIPKDTPVVLYCRTGNRSWQAAAWLSAQGYRVYNLEGGIVRWYRAGLPVDTTPMEAAYRATPYQEVGPEEAKALLEEAFVVDVREAWEYGEGHVPGAVNIPLSTLPQRLAELPKDRPILLVCNSGNRSGVAAEFLVAQGFDGERVYNLEGGTYAWASRGLPLER	soluble
MKFDDSKPIYKQIVHYIHTEIVTGTYEAGDKLLSVRELATKLEVNPTTIQRAYAELEEAGIIFTVRGTGKYLTEDKRRIEQLENHIAKQLTENFISEMSKLGINKEKIIAWVKKVEEVEVNASGK	not soluble
MSLTTQLGLPDDIQACLFDLDGVVTRTAVVHAAAWKATFDTFLRERDGADFRPFTDSDYDQYVDGRPRADGVRSFLASRGVELPEGTPDDPPDARTVNGVGNRKNELLLEKIRTDGVEPYEGTLRYIDAVRAAGLATAIVSSSANTRDVLRSIDAERLFDVRIDGVVARERKLPGKPHPDTFLAAARDLGVEASRAAVFEDALAGMDAGRSGHFGYVVGVDRVGQTDALYAHGADRVVKDLAELGDHAEGHHHHHH	soluble
MGSDKIHHHHHHMIEELAREIVKRFPRNHKETDPFRVLISTVLSQRTRDENTEKASKKLFEVYRTPQELAKAKPEDLYDLIKESGMYRQKAERIVEISRILVEKYGGRVPDSLEELLKLPGVGRKTANIVLWVGFKKPALAVDTHVHRISNRLGWVKTRTPEETEEALKKLLPEDLWGPINGSMVEFGRRICKPQNPLCEECFLKNHCEFYRRRGKGEVRNRTER	not soluble
MDNEKLIREARRMEDVQQLKMQIPKPVDKKPRPPPSENNLKLISCEETCMDETLKNSSKPRMIYNKQLGRAESIDFDVPSLSYESSTFKKSNNSSGGALVLDNHYLINNDDGTVKKLPMKVYVKQRLEDGSLDVQLVFFDENSQKVMDISMLVNGKKIRNVQFCGKDGKLVN	not soluble
MGSDKIHHHHHHMLRRYRKLGEILLEKGFITREELDKALEIQKEERKPLGEVLIETGYITEDQLLEALSEQYGVPILKELPKNIPLNVVGSIPKNIIESLHVIPVEKKEDGTLVVVTDNGTNIPRIKQEIRFLTGKNPEIYLVTSRDFSVLYQTYVLGVPLELFEEPYVAIEETPEQVEEEEEEEREVEEAPIVRLVNNIVNRAIEMGASDIHIEPMKRTVRVRFRIDGILRKVLEYQKPQHNSVVARIKIMSGLDVSERRLPQDGKFYTIKGGEQYDFRVSTMPSTFGEKVVMRILKVSDANKRLEELGYSEYNLKRILSLLEKPYGIILVTGPTGSGKSTTLVAMINYLKSESVNIVTAEDPVEYTIEGVTQCQVFPEIGLTFARYLRAFLRQDPDIIMVGEIRDRETAQLAVEASLTGHLVLSTLHTNTAAGAVSRLIEMGIDPHLLGASLIGIIGQRLVRKLCDECKMPGEVRDEQVKSYFEQFFGKVPDQIYYPSEEGCPACKGMRYRGRMAIGEVLIVDEELRELISSKASETEIAKLAVKKGMRTMFQDALEKVLLGQTSIEEVFRVTTPL	not soluble
MKAEKVRLRKQIIEHMNSLSEEQYTTLSEQIAFSLYAQKEWVEAKTIGITLSMENEVNTYPIIEKAWEEGKKVVVPKCNKGTRTMSFRQINNFDQLETVYMNLREPIPGLTEEVNMDEIDLQIVPGVAYTERGERIGYGGGYYDRYLVHYKGKTLSLAYDFQMVKHIPVEPFDKNIEKIITEKGTLLTNKLVLEHHHHHH	soluble
MTQDPHQTADILIIGGGLSGSMLAAQLLRRPGQRRILIIETRSELGRGEAYSATEPGHTLNGNAARMSVDPDNAHDLTEWLTGYLAEGGWPEAAEQKIPVAELFPPRGVFGLYVQQRLREAQVVGEGFGSTVGHVRAEAVDVQVSEQGVSVTLADGRELRGSQAVLATGMYAASRTPQRESNALNAASLDPWDVSVMQQLDPQTRVLIIGSGLTMVDALVSLEKAGHRGPIQVFSRHGLLPHVRRQPPEWSDFLAQDPSIRSTRQLVRKVREQCELAIESGIDWQAPLDTVRANVGRLWNQATDTQRRQFVRHVRPWWESHHHRSPPPSAALLARLVKQGRLSIEAASLQGVASLPSGQVQISVRRRGEHEPTHILGDALINSTGIEYDWRRVDRPLPRQLLARGLIQPGPLALGIAAAHDGAVLDAQGQRSAHLFAMGPPLRGMWWESTAVTDVAIQAKALAMRLALEHHHHHH	soluble
MSGEPELIELRELAPAGRAGKGRTRLERANALRIARGTACNPTRQLVPGRGHRFQPAGPATHTWCDLCGDFIWGVVRKGLQCARLSADCKFTCHYRCRALVCLDCCGPRDLGWEPAVERDTNVDEPVEWETPDLSQAEIEQKIKEYNAQINSNLFMSLNKDGSYTGFIKVQLKLVRPVSVPSSKKPPSLQDARRGPGRGTSVRRRTSFYLPKDAVKHLHVLSRTRAREVIEALLRKFLVVDDPRKFALFERAERHGQVYLRKLLDDEQPLRLRLLAGPSDKALSFVLKENDSGEVNWDAFSMPELHNFLRILQREEEEHLRQILQKYSYCRQKIQEALHACPLGLEHHHHHH	not soluble
MLDYVPWIGNGYRYGNNHRGSNSSTSGVTTQGQSQNASSNEPAPTFSNVGVGLKANVNGTLSGSRTTPNQQGTPWLTLDQANLQLWTGAGWRNDKNGQSDENYTNFASAKGSTNQQGSTTGGSAGNPDSLKQDKADKSGDSVTVAEATSGDNLTNYTNLPPTSPPHPTDRTRCHSPTRTTPSGCSCSCAACWAASRCWSIRVGKMITVSLIPPTKNGLTPNLEHHHHHH	not soluble
MSLHPETSTELADIRKKAGRRRSIVFVAGNFNIVHPGHLRLLKFAADCGDYLVVGVTADPGYDWMLPAELRLEGVRAIGVVDHAFLLHDAPEDFIAALQPSVVVKGKEHEGADNPEKAVLDGYGGRLVFSSGEVAFSSLDLIKREFREFNPSSIVKPLDYPRRHRFELLELKNVLAGFPKLRVLVLGDLIVDEYIACDPLGLSQEDPTIVVTPVLRELFVGGAGIVAGHAAGMGAQVALLTVGGGDAMADFARERLASYNVDATILTDESRPTTTKQRFRAGNKTLLRVSHLKQHDVDADLQTRMLETIEHRLPSTDLVVFSDFNYGCLPTRLVEAIGQACRARGVPMVADSQSSSQVGDISRFAEMLLIKPTEREARLAMRDFDSGLVVLVEALREKARAKNVILTLAAEGLLVHAETGSAGTVVTDRLPAFNTAPKDAAGAGDSFFVCAALALAIGTDIWRSAYLASIAAACQVGRIGNIPVTARDIIRELDTEGHHHHHH	soluble
